Assay results from patent US8632772B2, “Methods of treating multiple myeloma using combination therapies based on anti-CS1 antibodies” (Dana-Farber Cancer Institute, priority 2006, dated 2014).

Columns and labels:
CS1 = CS1 protein expression on OPM2 cell line (flow cytometry); format: cell-based, human; conditions: OPM2 multiple myeloma cell line
Description: The effect of HuLuc63 and bortezomib treatment on expression of CS1 in MM cell lines and mouse xenograft tumors was examined by flow cytometry and immunohistochemistry respectively.
The combination of HuLuc63 with bortezomib was then tested for anti-myeloma activity in vitro using ADCC assays. […] OPM2 cells were pretreated with vehicle control (square symbols) or bortezomib (10 nM; round symbols) for 18 hrs and were then subjected to HuLuc63 mediated ADCC using human NK cells from healthy donors. HuLuc63 (closed symbols) and isotype control antibody (open symbols) were used at doses ranging from 0.001-10 μg/ml.

OPM2 myeloma cells = assay: 51Cr release ADCC assay, OPM2 cells with NK cells from healthy donors; format: cell-based, human; conditions: bortezomib 10 nM, 18 hrs; NK effector cells from healthy donors
Description: OPM2 myeloma cells were harvested at mid-log phase, suspended at a density of 1.0×10^6 cells/mL in complete media (RPMI with 10% FBS) and treated overnight with or without Velcade (10 nM). Cells were collected, washed, re-suspended at a density of 20×10^6 viable cells/mL, and labeled for one hour with […] Na2[^51Cr]O4 per 10^6 cells. ^51Cr-Labeled cells were washed then added to a 96-well V-bottomed polystyrene plate at a cell density of 15,000 cells per 75 μL RPMI supplemented with 10% heat-inactivated FBS. HuLuc63 and a human IgG1 isotype control antibody MSL-109 were added to target cells for a final antibody concentration ranging from 0.001 to 10 μg/mL. NK cells were enriched from the whole blood of healthy donors using the RosetteSep human NK cell enrichment cocktail (Stem Cell Technologies). The enriched NK cells were added to Velcade treated or untreated OPM2 cells at a ratio of 10:1. After a 4-hour incubation at 37° C., cells were centrifuged and the supernatants measured for released ^51Cr. Maximum release was determined from target cells lysed with […] Digitonin. Antibody independent cellular cytotoxicity (AICC) was determined using target cells, plus media, plus NK cells, while spontaneous lysis was determined using ^51Cr-labelled cells plus media without NK effectors. % Cytotoxicity was calculated as ((sample−AICC)/(Maximum−AICC)*100. […]

OPM2 tumor [1] = assay: OPM2 xenograft mouse model, second experiment (clinic-like bortezomib schedule); format: in vivo, mice; conditions: HuLuc63 1 mg/kg ip twice a week, 10 doses; bortezomib 1 mg/kg ip twice weekly weeks 1, 2, 4, 5
Description: In a second experiment, HuLuc63 was combined with bortezomib in vivo, using a different dose and dosing schedule for bortezomib, while keeping the original HuLuc63 dose and dosing schedule. OPM2 cells were inoculated into the flanks of SCID mice. When tumors reached an average size of about 100 mm3, animals were randomized into 4 groups of 15 mice each and were treated with 1 mg/kg of antibody administered intraperitoneally twice a week for a total of 10 doses. Bortezomib was administered intraperitoneally at a dose of 1 mg/kg twice for weeks 1 and 2, no treatment for week 3, and 1 mg/kg twice for weeks 4 and 5 for a total of 8 doses. The intent for this dosing schedule was to more closely mimic the dosing schedule of bortezomib in the clinic, where each treatment cycle consists of 2 weeks of dosing, with one week off. Tumor growth was monitored for a period of 1-2 months.

MHC class I = conditions: bortezomib treatment of myeloma cells; cited from earlier work
patient MM cells = assay: calcein-AM release ADCC assay, autologous patient MM cells with PBMC effector cells; format: cell-based, human
Description: (§1) ADCC was measured by calcein-AM release assay, with sensitivity similar to traditional Cr^51 assay, as described previously. After informed consent, peripheral blood mononuclear cells (PBMCs) including natural killer (NK) effector cells were isolated from leukopheresis products of normal donors or peripheral blood from MM patients. Increasing concentrations (0-10 μg/ml) of either HuLuc63 or human isotype control IgG1 MSL109 mAbs were added at effector:target (E:T) ratios of 20:1, in a final volume of 200 μl per well. In some experiments, PBMC effector cells were pretreated with lenalidomide for 3 days at 0.2 μM before HuLuc63-mediated ADCC assays were performed. After 4 h incubation, 100 μl culture supernatants were transferred to a Black ViewPlate™-96 plate and arbitrary fluorescent units (AFU) were read on a fluorometer (Wallac VICTOR2). This assay is valid only if (AFU mean maximum release−medium control release)/(AFU mean spontaneous release−medium control release)>7. Calculation of % specific lysis from triplicate experiments was done using the following equation: […]
HuLuc63-mediated lysis of patient MM cells by effector cells from the same patient was measured using an ADCC assay.
HuLuc63-mediated lysis of patient myeloma cells by PBMC effector cells from the same patient was measured using an ADCC assay. CD138-purified tumor cells from a patient with MM were incubated with autologous effector cells in the presence of serial dilutions of HuLuc63 (solid symbols) or isotype control IgG1 (open symbols). PBMC effector cells were pre-incubated for 3 days in the presence or absence of with lenalidomide […] (square symbols) or vehicle control (round symbols), followed by HuLuc63-mediated ADCC. […] Similarly, pretreatment of effector cells with lenalidomide enhanced HuLuc63-induced lysis of myeloma cell lines (FIGS. 3A and 3B).

myeloma cell lines = assay: calcein-AM release ADCC assay, myeloma cell lines, effector cells pretreated with lenalidomide; format: cell-based, human
Description: as §1
HuLuc63-mediated lysis of patient myeloma cells by PBMC effector cells from the same patient was measured using an ADCC assay. […]

OPM2 tumor [2] = assay: OPM2 xenograft mouse model, first experiment; format: in vivo, mice; conditions: HuLuc63 1 mg/kg ip twice weekly, 6 doses; bortezomib 0.75 mg/kg ip twice a week
Description: Six- to eight-week old female IcrTac:ICR-Prkdc^scid mice obtained from Taconic Farms (Germantown, N.Y.) were inoculated with 1×10^7 OPM2 (American Type Culture Collection) cells into the lower right flank. Caliper measurements were performed twice weekly to calculate tumor volume using the following formula: L×W×H/2, where L (length) is the longest side of the tumor in the plane of the animal's back, W (width) is the longest measurement perpendicular to the length and in the same plane and H (height) is taken at the highest point perpendicular to the back of the animal. When tumors reached an average size of about 100 mm^3, animals were randomized into 3 groups of 8-10 mice each and were treated with 1 mg/kg of antibody administered intraperitoneally twice a week for a total of 6 doses. […] Tumor growth was monitored for a period of 1-2 months.

myeloma cells = conditions: cited from earlier work
myeloma tumor = conditions: myeloma mouse tumor model; cited from earlier work

Molecule | change in CS1 expression pre- or post-treatment (CS1) | effect of pre-treatment of OPM2 cells on HuLuc63-mediated ADCC (OPM2 myeloma cells) | anti-tumor activity (OPM2 tumor [1]) | cell-surface expression of MHC class I on myeloma cells (MHC class I) | effect of pre-incubation of PBMC effector cells on HuLuc63-mediated ADCC activity, autologous patient sample (patient MM cells; lenalidomide (0.2 µM) for 3 days before ADCC) | effect of pretreatment of effector cells on HuLuc63-induced lysis of myeloma cell lines (myeloma cell lines) | anti-tumor activity (OPM2 tumor [2]) | lysis of myeloma cells via ADCC (myeloma cells) | autologous myeloma cell lysis (ADCC) (patient MM cells; patient MM cells with effector cells from the same patient, 0-10 μg/ml, E:T 20:1) | autologous tumor cell lysis in patients with MM resistant or refractory to bortezomib and/or 17-AAG (patient MM cells; resistant or refractory patient tumor cells, autologous effector cells) | reduction of tumor mass (myeloma tumor)
CC(C)C[C@H](NC(=O)[C@H](Cc1ccccc1)NC(=O)c1cnccn1)B(O)O [bortezomib, reference compound] | no significant change | significantly enhanced | significant anti-tumor activity | down-modulation |  |  |  |  |  |  | 
Nc1cccc2c1CN(C1CCC(=O)NC1=O)C2=O (stereo not shown) [lenalidomide, reference compound] |  |  |  |  | significantly increased the ADCC activity | enhanced |  |  |  |  | 
HuLuc63: humanized recombinant monoclonal IgG1 antibody directed to human CS1; heavy chain variable region SEQ ID NO: 5, light chain variable region SEQ ID NO: 6 (antibody, listed as Homo saiens, listed as Homo sapiens, V domains shown) VH: EVQLVESGGGLVQPGGSLRLSCAASGFDFSRYWMSWVRQAPGKGLEWIGEINPDSSTINYAPSLKDKFIISRDNAKNSLYLQMNSLRAEDTAVYYCARPDGNYWYFDVWGQGTLVTVSS VL: DIQMTQSPSSLSASVGDRVTITCKASQDVGIAVAWYQQKPGKVPKLLIYWASTRHTGVPDRFSGSGSGTDFTLTISSLQPEDVATYYCQQYSSYPYTFGQGTKVEIK | no significant change |  | significant anti-tumor activity |  |  |  | significant anti-tumor activity | effectively mediates lysis | induced significant autologous myeloma cell lysis | demonstrated | more than 50%
